From publication doi:10.1101/2020.11.12.379867

Target: GST-STG^9D (GST-fused C-terminus of STG with nine serine residues replaced with aspartate)
Assay: pull-down

B1: flag-tagged μ3 subunit of the adaptor protein AP-3 (μ3A) (natural protein)
chain: MIHSLFLINCSGDIFLEKHWKSVVSQSVCDYFFEAQEKAADVENVPPVISTPHHYLISIYRDKLFFVSVIQTEVPPLFVIEFLHRVADTFQDYFGECSEAAIKDNVVIVYELLEEMLDNGFPLATESNILKELIKPPTILRSVVNSITGSSNVGDTLPTGQLSNIPWRRAGVKYTNNEAYFDVVEEIDAIIDKSGSTVFAEIQGVIDACIKLSGMPDLSLSFMNPRLLDDVSFHPCIRFKRWESERVLSFIPPDGNFRLISYRVSSQNLVAIPVYVKHSISFKENSSCGRFDITIGPKQNMGKTIEGITVTVHMPKVVLNMNLTPTQGSYTFDPVTKVLAWDVGKITPQKLPSLKGLVNLQSGAPKPEENPNLNIQFKIQQLAISGLKVNRLDMYGEKYKPFKGVKYVTKAGKFQVRT
  amount of μ3 pulled down (STG^9A = 100%): 21%
